Assay results as given in JPH11127861A (dated 1999).

Target: HCV serine protease Cpro-2 (NS3 protein, p70) (C型肝炎ウイルス (株名 HCV-J))
Experiment: cell-based or functional assay

Binder | IC50, HCVプロテアーゼ阻害活性 (組換え基質MBP-NS5A/5B-ADK)
GYSFTDYVLIWVKQS [CDR-H1 (15 amino acid peptide containing CDR1 of the mAb 8D4 H chain)] | 20.8 µM
TDYVLIW [CDR-H1-7 (7 amino acid peptide: the 5 residues of H chain CDR1 with one residue left at each end)] | 165 µM
NSNPYYGRTSYNLKFKG [CDR-H2 (17 amino acid peptide, CDR2 of the mAb 8D4 H chain)] | 229 µM
